Measurements as given in the supplement of paper PMC10724198.
± gives the standard deviation of the averaged measurements.

Test system: Saccharomyces cerevisiae
Experiment: protein stability index of tFT-peptide fusion (C-terminal peptide) (PSI (0-1 scale)); higher = more stable (slower turnover)
Settings: temperature: 30 C
Experimental: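 MPS profiling in S. cerevisiae of the yeast C-terminome library: the last 12 aa of each annotated ORF are fused to the C-terminus of a sfGFP-mCherry timer, after a GGGS linker. Cells are FACS-sorted into 8 mCherry/sfGFP bins and deep-sequenced. PSI runs from 0 (unstable) to 1 (stable); wild type and das1Δ backgrounds, two technical replicates each.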

[1] = genetic background: das1 deletion

PLTRFHSCPITA [ECM13 C-terminal 12 aa]
protein stability index [1]: 0.275 ± 0.035 | protein stability index (genetic background: wild type): 0.301 ± 0.013

SVLVCFLLRRAS [YJR087W C-terminal 12 aa]
protein stability index [1]: 0.506 ± 0.02 | protein stability index (genetic background: wild type): 0.342 ± 0.0095

KKFIYQQLDMFS [YOL024W C-terminal 12 aa]
protein stability index [1]: 0.7181 ± 0.0053 | protein stability index (genetic background: wild type): 0.7 ± 0.024

FDIKKANSATLA [TMA46 C-terminal 12 aa]
protein stability index [1]: 0.6584 ± 0.0037 | protein stability index (genetic background: wild type): 0.634 ± 0.019

TGLAGEGDTLVT [TAG1 C-terminal 12 aa]
protein stability index [1]: 0.694 ± 0.007 | protein stability index (genetic background: wild type): 0.685 ± 0.021

LFSSRNTVCAPY [YIL134C-A C-terminal 12 aa]
protein stability index [1]: 0.7258 ± 0.0047 | protein stability index (genetic background: wild type): 0.727 ± 0.018

SVLYAIDFSAAF [EMA35 C-terminal 12 aa]
protein stability index [1]: 0.717 ± 0.012 | protein stability index (genetic background: wild type): 0.703 ± 0.02

FFNISVSTKISF [YER175W-A C-terminal 12 aa]
protein stability index [1]: 0.6797 ± 0.00033 | protein stability index (genetic background: wild type): 0.659 ± 0.04

ALGMYFLGPALK [YGL063C-A C-terminal 12 aa]
protein stability index [1]: 0.697 ± 0.02 | protein stability index (genetic background: wild type): 0.7443 ± 0.0028

FIEMSLASSFAG [MBR1 C-terminal 12 aa]
protein stability index [1]: 0.713 ± 0.009 | protein stability index (genetic background: wild type): 0.704 ± 0.028

CLRTVLKSDEIK [SFA1 C-terminal 12 aa]
protein stability index [1]: 0.647 ± 0.025 | protein stability index (genetic background: wild type): 0.663 ± 0.021

RRKKKLMDELNL [ISY1 C-terminal 12 aa]
protein stability index [1]: 0.703 ± 0.04 | protein stability index (genetic background: wild type): 0.669 ± 0.017

FPQLNGLLRLQH [YPR014C C-terminal 12 aa]
protein stability index [1]: 0.698 ± 0.015 | protein stability index (genetic background: wild type): 0.681 ± 0.028

DLSLVFGNHEST [HEM15 C-terminal 12 aa]
protein stability index [1]: 0.694 ± 0.038 | protein stability index (genetic background: wild type): 0.727 ± 0.02

ESEKELYNATLA [NHP6A C-terminal 12 aa]
protein stability index [1]: 0.697 ± 0.011 | protein stability index (genetic background: wild type): 0.718 ± 0.0079

MNEIDARIFEYK [SPO11 C-terminal 12 aa]
protein stability index [1]: 0.764 ± 0.024 | protein stability index (genetic background: wild type): 0.681 ± 0.013

QIDKLLTVLDSL [RTP1 C-terminal 12 aa]
protein stability index [1]: 0.717 ± 0.023 | protein stability index (genetic background: wild type): 0.691 ± 0.038

QGQKFIHDNNTN [YMR245W C-terminal 12 aa]
protein stability index [1]: 0.673 ± 0.031 | protein stability index (genetic background: wild type): 0.646 ± 0.018

DLIESTFRSITQ [PAN3 C-terminal 12 aa]
protein stability index [1]: 0.7194 ± 0.0067 | protein stability index (genetic background: wild type): 0.7049 ± 0.0029

FTPSYIPEPVLL [YOR161W-B C-terminal 12 aa]
protein stability index [1]: 0.671 ± 0.012 | protein stability index (genetic background: wild type): 0.654 ± 0.013

DSEDDEDESDDE [SUI2 C-terminal 12 aa]
protein stability index [1]: 0.689 ± 0.036 | protein stability index (genetic background: wild type): 0.717 ± 0.094

STFTLNLEDVSK [ECM12 C-terminal 12 aa]
protein stability index [1]: 0.711 ± 0.0086 | protein stability index (genetic background: wild type): 0.634 ± 0.016

LASKHSQYTSPQ [RGT2 C-terminal 12 aa]
protein stability index [1]: 0.72 ± 0.0086 | protein stability index (genetic background: wild type): 0.662 ± 0.014

ILLITGFKSSFT [SRL4 C-terminal 12 aa]
protein stability index [1]: 0.72 ± 0.018 | protein stability index (genetic background: wild type): 0.737 ± 0.038

NTAKATYDLYTN [GPI8 C-terminal 12 aa]
protein stability index [1]: 0.686 ± 0.012 | protein stability index (genetic background: wild type): 0.6703 ± 0.0046

VLREEVKKEEEN [KRS1 C-terminal 12 aa]
protein stability index [1]: 0.6913 ± 0.006 | protein stability index (genetic background: wild type): 0.7 ± 0.025

LNEKESTKLFYR [ELP6 C-terminal 12 aa]
protein stability index [1]: 0.6871 ± 0.002 | protein stability index (genetic background: wild type): 0.701 ± 0.013

ETPLLYNDTHTP [IES5 C-terminal 12 aa]
protein stability index [1]: 0.696 ± 0.042 | protein stability index (genetic background: wild type): 0.695 ± 0.009

DDDEFDEDEFED [PAH1 C-terminal 12 aa]
protein stability index [1]: 0.695 ± 0.03 | protein stability index (genetic background: wild type): 0.7188 ± 0.0021

DEDEFENQRQQF [YIL055C C-terminal 12 aa]
protein stability index [1]: 0.71 ± 0.0099 | protein stability index (genetic background: wild type): 0.709 ± 0.076

RCSETKQQVMNS [BTT1 C-terminal 12 aa]
protein stability index [1]: 0.669 ± 0.033 | protein stability index (genetic background: wild type): 0.691 ± 0.0026

LVSMTILVSGLI [SHE9 C-terminal 12 aa]
protein stability index [1]: 0.246 ± 0.025 | protein stability index (genetic background: wild type): 0.262 ± 0.02

IAAFVVAVLFAF [PRY3 C-terminal 12 aa]
protein stability index [1]: 0.213 ± 0.012 | protein stability index (genetic background: wild type): 0.205 ± 0.012

ENLENKINNLSK [STF1 C-terminal 12 aa]
protein stability index [1]: 0.709 ± 0.025 | protein stability index (genetic background: wild type): 0.698 ± 0.034
